Data on nine sequences can be found in PMC4333395.

Substitutions are numbered along the chain they refer to.

The subject of series [1] is T1, hADAR2-D (human ADAR2 deaminase domain) (human), P78563-2.
T1 sequence: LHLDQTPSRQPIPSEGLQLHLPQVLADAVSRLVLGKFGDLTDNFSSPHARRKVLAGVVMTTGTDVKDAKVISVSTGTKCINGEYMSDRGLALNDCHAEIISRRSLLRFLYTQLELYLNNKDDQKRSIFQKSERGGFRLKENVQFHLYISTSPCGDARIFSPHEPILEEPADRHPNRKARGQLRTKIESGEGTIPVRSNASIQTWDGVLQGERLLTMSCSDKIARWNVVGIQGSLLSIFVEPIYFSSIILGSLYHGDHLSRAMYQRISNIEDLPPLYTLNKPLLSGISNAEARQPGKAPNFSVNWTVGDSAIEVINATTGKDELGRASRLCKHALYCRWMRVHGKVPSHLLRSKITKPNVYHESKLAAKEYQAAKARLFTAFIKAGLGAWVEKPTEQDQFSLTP
Nature of the series: EMSA. The conditions noted are these: EMSA: 20 mM Tris-HCl pH 7-7.1, 6% glycerol, 0.5 mM DTT, 60 mM KCl, 20 mM NaCl, 0.1 mM 2-mercaptoethanol, 1.5 mM EDTA, 0.003% NP-40, 160 U/ml RNasin, 100 ug/ml ….

Series [2] has as its system T2, hADAR2-D E488Q E488Q (human), P78563-2.
T2 sequence: T1 sequence with E190Q
Nature of the series: EMSA. The conditions noted are these: N12 of top = 8-azanebularine; EMSA: 20 mM Tris-HCl pH 7-7.1, 6% glycerol, 0.5 mM DTT, 60 mM KCl, 20 mM NaCl, 0.1 mM 2-mercaptoethanol, 1.5 mM EDTA, 0.003% NP-40, 160 U/ml RNasin, 100 ug/ml ….

Turning to “CAUUANGGUGGGUGGAAUAGUAUAACA / UGUUAUAGUAUCCCACCUACCCUGAUG [(e) GluR B R/G 8-azaN]”, in series [1] (N6 of top = 8-azanebularine), the Kd was more than 3200 nM.
“CCCCACAUUNGACGUUCAGUUAGUACCACCAAUGUGGGG [(c) 8-azaN]” gave a Kd in series [1] (N10 = 8-azanebularine) of 310 nM.
“UUCCCCACAUUNGACGUUCAGU / ACTGAACCACCAAUGUGGGGAA [(g) 8-azaN]” displayed a Kd in series [1] (N12 of top = 8-azanebularine, bottom nt 1-7 2'-deoxy) of 99 nM.
“UUCCCCACAUUNGACGUUCAGU / ACUGAACCACCAATGUGGGGAA [(h) 8-azaN]” registered a Kd in series [1] (N12 of top = 8-azanebularine, bottom nt 8-15 2'-deoxy) of 342 nM.
Regarding “UUCCCCACAUUNGACGUUCAGU / ACUGAACCACCAAUGTGGGGAA [(f) 8-azaN]”, in series [1] (N12 of top = 8-azanebularine, bottom nt 16-22 2'-deoxy), the Kd was determined as 114 nM.
In the case of “UUCCCCACAUUNGACGUUCAGU / ACUGAACCACCAAUGUGGGGAA [(d) 8-azaN]”, the Kd in series [1] (N12 of top = 8-azanebularine) was 30 nM.
“UUCCCCACAUUNGACGUUCAGU / ACUGAACGACCAAUGUGGGGAA [(i) 8-azaN]”: the Kd in series [2] was less than 5 nM; in series [1] (N12 of top = 8-azanebularine), 15 nM.
As for “UUCCCCACAUUNGACGUUCAGU / ACUGAACGUCCAAUGUGGGGAA [(j) 8-azaN]”, the equilibrium dissociation constant (Kd) in series [1] (N12 of top = 8-azanebularine) turned out to be 10 nM. That is a double-digit nanomolar value.
For the sequence “UUCCCCACAUUNGACGUUCAGUUAGUACCACCAAUGUGGGGAA [(b) 8-azaN]”, the dissociation constant (Kd) in series [1] (N12 = 8-azanebularine) turned out to be 27 nM.
